Experimental data as given in patent US20220402995A1 (TOSOH, published 2022).
Numbering of substitutions follows the chain as printed.

B1: AAV-binding protein No. 135 (AVR8g + Glu335Gly, Gln386Arg) (receptor)
chain: MGSAGESDQITLPKNEVQLNAYVLQGPPKGETCTYDWQLITHPRDYSGEMEGEHSQILKLSNLTPGLYEFKVIVEGRNAHSEGYVNVTVEPEPRKNRPPIAIVSPQFQEISLPTTSTVIDGSQSTDDDKIVQYHWEELKGPLREEKISEDTAILKLSKLVPGNYTFRLTVVDSDGATDSTTANLTVNKAVDHHHHHH
B2: AAV-binding protein No. 73 (AVR2 + Val396Ala) (receptor)
chain: B1 chain with D8V, G26E, E53K, N62K, R77Q, V87A, E90K, R167S, D178N
B3: AAV-binding protein No. 71 (AVR2 + His389Asp) (receptor)
chain: B1 chain with D8V, G26E, E53K, N62K, R77Q, H80D, E90K, R167S, D178N
B4: AAV-binding protein No. 117 (AVR8g + Leu376Pro) (receptor)
chain: B1 chain with G26E, L67P, R77Q
B5: AAV-binding protein No. 130 (AVR8g + Lys323Arg, Glu384Val) (receptor)
chain: B1 chain with K14R, G26E, E75V, R77Q
B6: AAV-binding protein No. 150 (AVR8g + Val396Ala, Gln441Arg, Lys448Glu) (receptor)
chain: B1 chain with G26E, R77Q, V87A, Q132R, K139E
B7: AAV-binding protein No. 74 (AVR2 + Ser476Gly) (receptor)
chain: B1 chain with D8V, G26E, E53K, N62K, R77Q, E90K, R167G, D178N
B8: AAV-binding protein No. 70 (AVR2 + Val383Ala) (receptor)
chain: B1 chain with D8V, G26E, E53K, N62K, V74A, R77Q, E90K, R167S, D178N
B9: AAV-binding protein No. 131 (AVR8g + Asn324Ser, Gly357Cys) (receptor)
chain: B1 chain with N15S, G26E, G48C, R77Q
B10: AAV-binding protein No. 129 (AVR8g + Ala313Ser, Glu378Gly) (receptor)
chain: B1 chain with A4S, G26E, E69G, R77Q
B11: AAV-binding protein No. 127 (AVR8g + Asp483Asn) (receptor)
chain: B1 chain with G26E, R77Q, D174N
B12: AAV-binding protein No. 62 (AVR2 + Leu328Pro) (receptor)
chain: B1 chain with D8V, L19P, G26E, E53K, N62K, R77Q, E90K, R167S, D178N
B13: AAV-binding protein No. 148 (AVR8g + Glu384Val, Gln432Arg, Ile456Val) (receptor)
chain: B1 chain with G26E, E75V, R77Q, Q123R, I147V
B14: AAV-binding protein No. 128 (AVR8g + Ser312Pro, Pro374Leu) (receptor)
chain: B1 chain with S3P, G26E, P65L, R77Q
B15: AAV-binding protein No. 121 (AVR8g + Val381Ala) (receptor)
chain: B1 chain with G26E, V72A, R77Q
B16: AAV-binding protein No. 139 (AVR8g + Leu369Gln, Pro374Leu) (receptor)
chain: B1 chain with G26E, L60Q, P65L, R77Q
B17: AAV-binding protein No. 142 (AVR8g + Glu378Gly, Arg403His) (receptor)
chain: B1 chain with G26E, E69G, R77Q, R94H
B18: AAV-binding protein No. 116 (AVR8g + Thr373Ala) (receptor)
chain: B1 chain with G26E, T64A, R77Q
B19: AAV-binding protein No. 134 (AVR8g + Asn329Ile, Val499Ile) (receptor)
chain: B1 chain with N20I, G26E, R77Q, V190I
B20: AAV-binding protein No. 72 (AVR2 + Val394Ala) (receptor)
chain: B1 chain with D8V, G26E, E53K, N62K, R77Q, V85A, E90K, R167S, D178N
B21: AAV-binding protein No. 123 (AVR8g + Tyr393Cys) (receptor)
chain: B1 chain with G26E, R77Q, Y84C
B22: AAV-binding protein No. 63 (AVR2 + Tyr331His) (receptor)
chain: B1 chain with D8V, Y22H, G26E, E53K, N62K, R77Q, E90K, R167S, D178N
B23: AAV-binding protein No. 77 (AVR2 + Leu321Pro, Ile409Val) (receptor)
chain: B1 chain with D8V, L12P, G26E, E53K, N62K, R77Q, E90K, I100V, R167S, D178N
B24: AAV-binding protein No. 125 (AVR8g + His443Leu) (receptor)
chain: B1 chain with G26E, R77Q, H134L
B25: AAV-binding protein No. 68 (AVR2 + Tyr(Cys)342Arg) (receptor)
chain: B1 chain with D8V, G26E, C33R, E53K, N62K, R77Q, E90K, R167S, D178N
notes: Cys342 of AVR2 replaced by Arg
B26: AAV-binding protein No. 120 (AVR8g + Lys380Glu) (receptor)
chain: B1 chain with G26E, K71E, R77Q
B27: AAV-binding protein No. 113 (AVR8g + Ile366Thr) (receptor)
chain: B1 chain with G26E, I57T, R77Q
B28: AAV-binding protein No. 115 (AVR8g + Leu372Gln) (receptor)
chain: B1 chain with G26E, L63Q, R77Q
B29: AAV-binding protein No. 147 (AVR8g + Phe379Cys, Gln432Leu, Ser488Leu) (receptor)
chain: B1 chain with G26E, F70C, R77Q, Q123L, S179L

What was measured:
[1] = target: T1, VLP2 (virus-like particles of AAV2) (AAV2, UniProt P03135 1-735; P03135 1-598; P03135 1-533); assay: ELISA on VLP2; binding after pH 10.0 41.2°C 15 min / untreated
T1 construct: Empty AAV2 capsid; background says about 60 protein molecules, VP1:VP2:VP3 = 1:1:10; Immobilised on the ELISA plate
T1 sequence (P03135 whole entry, chain 1 of 3): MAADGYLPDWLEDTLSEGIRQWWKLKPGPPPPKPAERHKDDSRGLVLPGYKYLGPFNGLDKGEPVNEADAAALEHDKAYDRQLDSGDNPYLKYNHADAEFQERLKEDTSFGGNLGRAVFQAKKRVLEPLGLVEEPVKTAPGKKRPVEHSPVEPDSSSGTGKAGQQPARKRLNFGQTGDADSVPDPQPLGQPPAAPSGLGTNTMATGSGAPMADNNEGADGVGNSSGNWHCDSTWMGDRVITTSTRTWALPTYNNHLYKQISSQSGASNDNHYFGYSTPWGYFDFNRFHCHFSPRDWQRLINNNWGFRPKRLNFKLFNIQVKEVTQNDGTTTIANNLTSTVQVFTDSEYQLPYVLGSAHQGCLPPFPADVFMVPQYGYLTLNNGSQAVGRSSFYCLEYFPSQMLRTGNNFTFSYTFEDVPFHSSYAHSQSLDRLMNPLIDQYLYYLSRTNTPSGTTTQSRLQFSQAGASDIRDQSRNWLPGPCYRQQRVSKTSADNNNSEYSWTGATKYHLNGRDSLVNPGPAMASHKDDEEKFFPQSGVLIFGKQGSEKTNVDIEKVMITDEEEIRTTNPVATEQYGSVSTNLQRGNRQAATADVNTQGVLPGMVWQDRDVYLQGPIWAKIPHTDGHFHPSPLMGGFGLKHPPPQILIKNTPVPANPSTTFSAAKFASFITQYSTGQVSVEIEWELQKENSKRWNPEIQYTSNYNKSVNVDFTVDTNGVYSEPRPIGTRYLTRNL
T1 sequence (P03135 139-735, tags left off, chain 2 of 3): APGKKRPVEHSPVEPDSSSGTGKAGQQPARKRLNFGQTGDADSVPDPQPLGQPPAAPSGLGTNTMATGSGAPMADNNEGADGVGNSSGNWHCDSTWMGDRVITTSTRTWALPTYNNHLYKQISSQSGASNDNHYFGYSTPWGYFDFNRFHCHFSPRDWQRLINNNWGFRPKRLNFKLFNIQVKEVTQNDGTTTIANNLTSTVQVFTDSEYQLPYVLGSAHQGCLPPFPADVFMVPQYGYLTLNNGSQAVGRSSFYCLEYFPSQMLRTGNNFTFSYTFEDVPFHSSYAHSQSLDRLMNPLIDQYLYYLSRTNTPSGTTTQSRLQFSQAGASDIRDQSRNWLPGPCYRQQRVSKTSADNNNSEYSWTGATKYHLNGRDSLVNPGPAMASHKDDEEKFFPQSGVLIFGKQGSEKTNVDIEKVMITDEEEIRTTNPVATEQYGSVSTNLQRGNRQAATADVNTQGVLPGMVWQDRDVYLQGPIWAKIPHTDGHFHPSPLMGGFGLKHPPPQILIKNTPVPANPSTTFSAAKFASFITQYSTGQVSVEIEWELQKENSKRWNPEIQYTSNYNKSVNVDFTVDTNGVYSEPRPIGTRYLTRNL
T1 sequence (P03135 203-735, chain 3 of 3): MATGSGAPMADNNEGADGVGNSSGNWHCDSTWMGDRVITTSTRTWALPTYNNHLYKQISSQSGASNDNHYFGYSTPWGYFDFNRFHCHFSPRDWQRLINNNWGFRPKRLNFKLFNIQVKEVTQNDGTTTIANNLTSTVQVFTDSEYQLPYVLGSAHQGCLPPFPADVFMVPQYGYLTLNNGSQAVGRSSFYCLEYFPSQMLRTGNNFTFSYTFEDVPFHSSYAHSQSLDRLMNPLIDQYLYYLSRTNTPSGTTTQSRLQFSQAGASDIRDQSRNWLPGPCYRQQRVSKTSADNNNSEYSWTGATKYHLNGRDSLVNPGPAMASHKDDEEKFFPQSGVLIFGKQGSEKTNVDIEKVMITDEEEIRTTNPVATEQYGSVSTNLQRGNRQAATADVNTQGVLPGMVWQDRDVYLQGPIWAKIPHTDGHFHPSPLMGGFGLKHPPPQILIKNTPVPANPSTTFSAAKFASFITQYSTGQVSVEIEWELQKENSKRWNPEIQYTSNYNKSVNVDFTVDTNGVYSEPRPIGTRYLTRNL

[2] = target: T1, VLP2 (virus-like particles of AAV2); assay: ELISA on VLP2; binding after pH 3.0 51.1°C 15 min / untreated;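 note: binding of the heat-treated AAV-binding protein to VLP2, expressed as a percentage of the binding of the same protein without heating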
Protocol: The residual activity was calculated by dividing the binding activity of AAV-binding protein to VLP2 when the heat treatment was performed by the binding activity of AAV-binding protein to VLP2 when the heat treatment was not performed.

Row | Binder | Residual activity [%] [1] | Residual activity [%] [2]
1 | B1 | 36.3% | 
2 | B2 |  | 48.9%
3 | B3 |  | 71.9%
4 | B4 | 76.7% | 
5 | B5 | 63.1% | 
6 | B6 | 49.7% | 
7 | B7 |  | 63.4%
8 | B8 |  | 32.8%
9 | B9 | 70.3% | 
10 | B10 | 67.5% | 
11 | B11 | 23.3% | 
12 | B12 |  | 38.8%
13 | B13 | 37.4% | 
14 | B14 | 74.9% | 
15 | B15 | 89.9% | 
16 | B16 | 85.2% | 
17 | B17 | 76.6% | 
18 | B18 | 57.8% | 
19 | B19 | 63.9% | 
20 | B20 |  | 32%
21 | B21 | 60.5% | 
22 | B22 |  | 43.1%
23 | B23 |  | 34.3%
24 | B24 | 36.5% | 
25 | B25 |  | 70.4%
26 | B26 | 59.5% | 
27 | B27 | 41.4% | 
28 | B28 | 72.8% | 
29 | B29 | 79.7% | 
